Target: alpha-PrP (prion protein, alpha form) (UniProt P04156)
Assay: SPR
Conditions: PBS pH 7.0, room temperature

## GTTCGGCACTTGGGCCCTTTTCTGTGTCTTTCTGTGCCCTTAGATAGTATGTGCAATCA [CaAp-3]
  Kd: 0.116 µM
